IntAct's records for PubMed 29039417

B1: BBSome-interacting protein 1 (Homo sapiens), A8MTZ0 (parent)
chain: MLKAAAKRPELSGKNTISNNSDMAEVKSMFREVLPKQGPLFVEDIMTMVLCKPKLLPLKSLTLEKLEKMHQAAQNTIRQQEMAEKDQRQITH
partner: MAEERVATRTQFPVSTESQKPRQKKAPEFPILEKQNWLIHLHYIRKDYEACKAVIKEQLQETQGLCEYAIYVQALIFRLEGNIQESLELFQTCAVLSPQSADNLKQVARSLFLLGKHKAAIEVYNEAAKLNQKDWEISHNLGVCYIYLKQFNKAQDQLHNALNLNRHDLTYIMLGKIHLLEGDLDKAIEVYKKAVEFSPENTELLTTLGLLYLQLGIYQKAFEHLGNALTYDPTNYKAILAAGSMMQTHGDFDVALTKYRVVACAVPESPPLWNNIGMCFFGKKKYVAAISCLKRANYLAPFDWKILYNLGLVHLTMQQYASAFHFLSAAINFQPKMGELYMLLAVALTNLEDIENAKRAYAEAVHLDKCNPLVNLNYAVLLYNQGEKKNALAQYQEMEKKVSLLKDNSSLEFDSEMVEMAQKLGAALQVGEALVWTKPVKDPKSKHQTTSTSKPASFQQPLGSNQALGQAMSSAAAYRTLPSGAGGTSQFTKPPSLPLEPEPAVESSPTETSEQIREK

Variants of: B1
Details: with bbs4_human BBS4, Q96RK4

effect of a mutation on the interaction | Variant
with no effect | MLKAAAKRPELSGKNTISNNSDMAEVKSMFREVLPKQGPLFVEDIMTMVLCKPKLLPLKSLTLEKLEKMHQAAQNTIRQQKMAEKDQRQITH [E81K]
with no effect | MLKAAAKRPELSGKNTISNNSDMAEVKSMFREVLPKQGPLFVEDIMTMVLCKPKLLPLKSLTLEKLEKMAQAAQNTIRQQEMAEKDQRQITH [H70A]
with no effect | MLKAAAKRPELSGKNTISNNSDMKEVKSMFREVLPKQGPLFVEDIMTMVLCKPKLLPLKSLTLEKLEKMHQAAQNTIRQQEMAEKDQRQITH [A24K]
disrupting interaction strength | MLKAAAKRPELSGKNTISNNSDMAEVLSMFREVLPKQGPLFVEDIMTMVLCKPKLLPLKSLTLEKLEKMHQAAQNTIRQQEMAEKDQRQITH [K27L]
with no effect | MLKAAAKRPELSGKNTISNNSDMAEVKEMFREVLPKQGPLFVEDIMTMVLCKPKLLPLKSLTLEKLEKMHQAAQNTIRQQEMAEKDQRQITH [S28E]
with no effect | MLKAAAKRPELSGKNTISNNSDMAEVKSMFREVLPKQGPLFVEDIMTMVLCKPKLLPLKSLTLEKKEKMHQAAQNTIRQQEMAEKDQRQITH [L66K]
with no effect | MLKAAAKRPELSGKNTISNNSDMAEVKSMFREVLPKQGPLFVEDIMTMKLCKPKLLPLKSLTLEKLEKMHQAAQNTIRQQEMAEKDQRQITH [V49K]
with no effect | MLKAAAKRPELSGKNTISNNSDMAEVKSMFREVLPKQGPLFVEDIMTMVLCKPKLLPLKSLTLEALEKMHQAAQNTIRQQEMAEKDQRQITH [K65A]
disrupting interaction strength | MLKAAAKRPELSGKNTISNNSDMAEVKSMFREVPPKQGPLFVEDIMTMVLCKPKLLPLKSLTLEKLEKMHQAAQNTIRQQEMAEKDQRQITH [L34P]
with no effect | MLKAAAKRPELSGKNTISNNSDMAEVKSMFREVLPKQGPLFVEDIMTMVLCKPKLLPLKSLTLEKLEKMHQAAQNTIRQQEMAAKDQRQITH [E84A]
with no effect | MLKAAAKRPELSGKNTISNNSDMAEVKSEFREVLPKQGPLFVEDIMTMVLCKPKLLPLKSLTLEKLEKMHQAAQNTIRQQEMAEKDQRQITH [M29E]
with no effect | MLKAAAKRPELSGKNTASNNSDMAEVKSMFREVLPKQGPLFVEDIMTMVLCKPKLLPLKSLTLEKLEKMHQAAQNTIRQQEMAEKDQRQITH [I17A]
with no effect | MLKAAAKRPELSGKNTISNNSDMAEVKSMFREVLPKQGPLFVEDIMTMVLCKPKLLPLKSLTLEKLEKMHQAAQNTIRQQEMEEKDQRQITH [A83E]
with no effect | MLKAAAKRPELSGKNTISNNSDMAEVKSMAREVLPKQGPLFVEDIMTMVLCKPKLLPLKSLTLEKLEKMHQAAQNTIRQQEMAEKDQRQITH [F30A]
with no effect | MLKAAAKRPELSGKNTISNNSDMAEVKSMFREVLPKQAPLFVEDIMTMVLCKPKLLPLKSLTLEKLEKMHQAAQNTIRQQEMAEKDQRQITH [G38A]
with no effect | MLKAAAKRPELSGKNTISNNSDMAEVKSMFREVLPKQGPEFVEDIMTMVLCKPKLLPLKSLTLEKLEKMHQAAQNTIRQQEMAEKDQRQITH [L40E]
with no effect | MLKAAAKRPELSGKNTISNNSDMAEVKSMFREVLPKQGPLFVEDIMTMVLCKPKLLPLKSLTLEKLEKMHQAAQNTIRKQEMAEKDQRQITH [Q79K]
with no effect | MLKAAAKRPELSGKNTISNNSDMAEVKSMFREVLPKQGPLFVEDIMTMVLCKPKLLPLKELTLEKLEKMHQAAQNTIRQQEMAEKDQRQITH [S60E]
with no effect | MLKEAAKRPELSGKNTISNNSDMAEVKSMFREVLPKQGPLFVEDIMTMVLCKPKLLPLKSLTLEKLEKMHQAAQNTIRQQEMAEKDQRQITH [A4E]
with no effect | MLKAAAKRPELSGKNTISNNSDMAEVKSMFREVLPKQGPLFVEDIMTMVLCKPKLLPLKSETLEKLEKMHQAAQNTIRQQEMAEKDQRQITH [L61E]
with no effect | MLKAAAKRPELSGKNTISNNSDMAEVKSMFREVLPKQGPKFVEDIMTMVLCKPKLLPLKSLTLEKLEKMHQAAQNTIRQQEMAEKDQRQITH [L40K]
with no effect | MLKAAAKRPELSGKNTISNNSDMAEVKSMFREVLPKQGPLFVEDIMTMVLCKPKLLPLKSLTLEKLKKMHQAAQNTIRQQEMAEKDQRQITH [E67K]
with no effect | MLKAAAKRPELSGKNAISNNSDMAEVKSMFREVLPKQGPLFVEDIMTMVLCKPKLLPLKSLTLEKLEKMHQAAQNTIRQQEMAEKDQRQITH [T16A]
with no effect | MLKAAAKRPELSGKNTISNNSDMAEVKSMFREVLPKQKPLFVEDIMTMVLCKPKLLPLKSLTLEKLEKMHQAAQNTIRQQEMAEKDQRQITH [G38K]
disrupting interaction strength | MLKAAAKRPELSGLNTISNNSDMAEVKSMFREVLPKQGPLFVEDIMTMVLCKPKLLPLKSLTLEKLEKMHQAAQNTIRQQEMAEKDQRQITH [K14L]
